# Data taken from paper PMC7794309.
# Conditions: glycan lost
Substance,"other: support of viral entry, other: percent increase over WT",other: viral replication
ACE2: N90Q,60%,increases
ACE2: N546Q,68%,no change
ACE2: N690Q,no change,
ACE2: N322Q,no change,
ACE2: N432Q,no change,
ACE2: N103Q,no change,
ACE2: N53Q,no change,
